Target: the molecule itself
Assay: native MS; 200 mM ammonium acetate, 0.062% C10E5, nanoelectrospray, Orbitrap EMR, room temperature; sample expressed with kifunensine and treated with EndoH

B1: TREK2^N84Q (TREK2 residues 55-335, T58A, N144Q, C-terminal StrepTag-II) (domain or fragment, UniProt P57789-1 55-335, looked up)
chain: MEGASQGGLQTVMKWKTVVAIFVVVVVYLVTGGLVFRALEQPFESSQKNTIALEKAEFLRDHVCVSPQELETLIQHALDADNAGVSPIGQSSNNSSHWDLGSAFFFAGTVITTIGYGNIAPSTEGGKIFCILYAIFGIPLFGFLLAGIGDQLGTIFGKSIARVEKVFRKKQVSQTKIRVISTILFILAGCIVFVTIPAVIFKYIEGWTALESIYFVVVTLTTVGFGDFVAGGNAGINYREWYKPLVWFWILVGLAYFAAVLSMIGDWLRVLSKKTKEEVGE
modifications: remaining inner core GlcNAc on Asn after EndoH cleavage; potential modifications of the glycan
notes: TREK2, two-pore domain potassium channel, UniProt P57789-1, residues 55-335 with T58A; The text introduces the mutant as N144Q and then calls it TREK2^N84Q; The Addgene plasmid is named for the parent construct with T58A; also called TREK2 N144Q
- stoichiometry N: 2

Source: paper PMC11228984, “TREK2 Lipid Binding Preferences Revealed by Native Mass Spectrometry” (Journal of the American Society for Mass Spectrometry, 2024)
